The supplement of paper PMC9876800

Tested on: peptide library, one residue held at a place counted from the S/T acceptor
Assay: relative phosphorylation of the sub-library (ratio to the mean residue at this position); higher = residue favoured
Method in brief: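 In 384-well plates, purified recombinant kinases (human or orthologue constructs) were incubated for 90 min under kinase-specific conditions with 50 μM biotinylated degenerate peptide sub-libraries and 50 μM ATP spiked with γ-32P-ATP. Each sub-library fixed a single residue at one position around a central Ser/Thr. Relative sub-library phosphorylation, measured by phosphorimaging and densitometry of streptavidin membrane spots, is given as a ratio to the mean residue at that position.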

MAP3K7, construct: aa1-303, human, sequence (O43318 1-303, looked up): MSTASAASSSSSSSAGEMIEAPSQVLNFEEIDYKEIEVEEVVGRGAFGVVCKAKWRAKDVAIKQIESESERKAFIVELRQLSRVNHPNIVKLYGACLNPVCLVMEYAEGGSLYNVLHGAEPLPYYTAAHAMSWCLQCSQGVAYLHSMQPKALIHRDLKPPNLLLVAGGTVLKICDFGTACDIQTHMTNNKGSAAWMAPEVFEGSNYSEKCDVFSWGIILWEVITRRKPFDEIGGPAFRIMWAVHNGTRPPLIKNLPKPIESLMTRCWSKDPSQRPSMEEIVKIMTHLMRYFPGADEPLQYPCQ
STK38L, construct: Full length, human, sequence (Q9Y2H1 whole entry, looked up): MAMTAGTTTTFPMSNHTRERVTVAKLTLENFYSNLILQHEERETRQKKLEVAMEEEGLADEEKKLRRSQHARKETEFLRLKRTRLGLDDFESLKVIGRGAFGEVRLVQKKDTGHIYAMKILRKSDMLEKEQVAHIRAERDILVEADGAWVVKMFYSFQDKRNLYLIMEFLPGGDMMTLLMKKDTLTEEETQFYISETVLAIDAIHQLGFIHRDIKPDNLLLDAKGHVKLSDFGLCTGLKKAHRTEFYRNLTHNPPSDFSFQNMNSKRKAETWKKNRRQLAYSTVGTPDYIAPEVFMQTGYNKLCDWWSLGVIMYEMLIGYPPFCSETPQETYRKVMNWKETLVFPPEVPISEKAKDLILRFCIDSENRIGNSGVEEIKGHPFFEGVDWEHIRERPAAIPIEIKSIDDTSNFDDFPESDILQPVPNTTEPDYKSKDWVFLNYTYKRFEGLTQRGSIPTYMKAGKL
CLK1, construct: aa128-end, human, sequence (P49759 128-484, looked up): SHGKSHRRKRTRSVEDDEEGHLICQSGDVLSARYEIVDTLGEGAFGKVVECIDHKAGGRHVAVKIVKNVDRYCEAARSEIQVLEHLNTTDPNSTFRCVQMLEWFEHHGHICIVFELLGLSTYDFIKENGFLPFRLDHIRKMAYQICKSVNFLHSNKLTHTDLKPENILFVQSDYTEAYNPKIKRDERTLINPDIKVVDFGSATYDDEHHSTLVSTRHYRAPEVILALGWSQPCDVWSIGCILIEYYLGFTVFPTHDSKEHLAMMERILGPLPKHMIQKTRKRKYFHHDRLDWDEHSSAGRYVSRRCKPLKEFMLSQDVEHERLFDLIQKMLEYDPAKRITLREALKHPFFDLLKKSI

CLK1, construct: aa128-end, human (from UniProt P49759)
relative phosphorylation
Conditions	at +1	at +2	at +3	at +4	at -1	at -2	at -3	at -4	at -5
A fixed	0.598	1.12	0.654	0.682	0.844	2.56	0.707	0.901	0.836
D fixed	0.144	0.577	0.507	0.907	0.327	0.602	0.306	0.506	0.591
E fixed	0.488	0.614	0.409	0.937	0.393	1.54	0.309	0.636	0.666
F fixed	0.442	0.909	0.713	1.01	0.669	0.339	0.317	0.87	1.86
G fixed	0.498	0.93	0.782	0.916	0.988	1.17	0.427	0.877	0.877
H fixed	0.56	1.23	1.01	0.915	0.822	0.482	0.634	1.02	0.956
I fixed	1.22	0.828	0.552	0.678	0.538	0.257	0.383	1.03	0.9
K fixed	0.704	1.53	3.14	1.47	2.35	0.993	2.66	1.8	1.49
L fixed	0.897	0.926	0.665	0.884	1.01	0.467	0.381	1.01	0.943
M fixed	0.839	0.985	0.633	0.907	0.999	0.427	0.394	0.866	0.891
N fixed	0.345	0.832	0.842	0.959	0.717	0.605	0.407	0.776	0.746
P fixed	5.99	1.18	1.84	0.92	0.993	0.588	0.368	0.725	0.839
Q fixed	0.739	0.875	0.854	1.19	1.02	0.936	0.598	0.871	0.742
R fixed	0.697	1.94	2.42	1.76	2.84	5.04	8.11	2.33	1.82
V fixed	1.95	1.08	0.627	0.722	0.667	0.345	0.325	0.92	0.809
W fixed	0.388	0.695	0.687	1.24	0.961	0.343	0.328	0.963	0.971
Y fixed	0.505	0.757	0.673	0.913	0.862	0.314	0.344	0.89	1.06
pThr fixed	0.711	1.62	0.67	1.58	0.273	0.444	0.355	0.642	0.501
pTyr fixed	0.383	0.451	0.856	0.874	0.523	0.283	0.321	0.748	0.76

STK38L, construct: Full length, human (from UniProt Q9Y2H1)
relative phosphorylation
Conditions	at +1	at +2	at +3	at +4	at -1	at -2	at -3	at -4	at -5
A fixed	0.661	1.19	0.645	0.811	0.671	0.847	0.656	1.03	0.951
D fixed	1.16	2.27	1.07	1.33	0.872	0.675	0.648	0.889	0.79
E fixed	1.1	0.721	0.987	1.21	0.636	0.712	0.554	0.812	0.582
F fixed	0.851	0.661	1.04	1.1	0.477	0.747	0.435	0.654	0.538
G fixed	1.38	2.25	1.6	1.15	1.68	1.2	0.833	1.39	0.971
H fixed	0.83	2.05	1.22	1.11	0.979	1.6	1.18	1.26	4.33
I fixed	0.832	0.568	0.826	0.711	0.238	0.265	0.23	0.403	0.345
K fixed	0.847	0.396	0.865	0.812	1.9	2.07	2.1	1.55	1.65
L fixed	0.804	0.421	0.788	0.856	0.619	0.315	0.243	0.481	0.433
M fixed	1.48	0.406	0.843	1.01	0.768	0.487	0.399	0.849	0.508
N fixed	1.61	1.09	1.22	1.24	1.43	1.53	1.03	0.989	0.792
P fixed	0.532	0.81	1.27	1.24	2.64	1.45	1.94	1.89	0.701
Q fixed	1.36	1.1	0.932	1.15	1.37	1.18	0.827	0.982	0.629
R fixed	0.577	0.391	0.59	0.588	1	1.9	4.36	1.63	1.7
V fixed	0.919	0.854	0.668	0.686	0.372	0.358	0.324	0.423	0.457
W fixed	1.09	0.958	1.39	0.955	0.545	1.01	0.598	0.942	0.884
Y fixed	0.961	0.856	1.04	1.05	0.799	0.64	0.657	0.829	0.741
pThr fixed	1.29	0.941	0.91	1.61	0.457	0.842	0.692	0.698	0.46
pTyr fixed	1.26	1.04	0.87	1.05	0.76	0.814	0.914	0.895	0.672

MAP3K7, construct: aa1-303, human (from UniProt O43318)
relative phosphorylation
Conditions	at +1	at +2	at +3	at +4	at -1	at -2	at -3	at -4	at -5
A fixed	0.455	0.709	0.902	0.855	0.708	0.979	1.18	0.95	1.05
D fixed	0.391	1.03	0.996	0.885	1.18	0.533	0.857	1.69	1.56
E fixed	0.668	0.547	0.878	0.898	0.687	0.863	0.662	1.33	1.17
F fixed	1.44	0.608	0.93	0.735	1.01	1.14	0.818	0.938	0.891
G fixed	0.565	0.809	1.39	1.18	0.528	0.592	0.714	1.14	1.04
H fixed	0.914	1.42	1.1	1.11	1.23	1.42	1.1	1.05	1.07
I fixed	1.41	0.623	0.714	0.921	0.888	1.2	1.14	0.872	0.781
K fixed	0.409	2.3	1.33	1.42	0.752	0.581	0.752	0.734	0.885
L fixed	2	0.608	0.821	0.949	1.57	1.01	1.13	0.834	0.77
M fixed	1.55	0.786	0.968	0.897	1.41	1.31	0.999	0.9	0.884
N fixed	2.36	1.44	1.07	0.959	1.13	0.633	0.649	0.962	0.987
P fixed	0.206	0.741	0.892	1.29	0.348	0.537	0.854	0.807	1.06
Q fixed	1.17	0.78	0.93	0.993	0.866	0.785	0.65	0.818	0.818
R fixed	0.597	2.39	1.33	1.29	1.02	1	1.54	0.795	0.994
V fixed	0.914	0.758	0.874	0.836	0.768	1.07	1	0.934	0.894
W fixed	0.963	0.646	0.969	0.923	1.2	1.31	1.37	1.14	1.07
Y fixed	0.979	0.804	0.903	0.866	1.7	2.04	1.58	1.11	1.08
pThr fixed	0.898	1.36	1.33	0.99	1.03	1.41	1.53	1.4	1.14
pTyr fixed	0.431	0.475	0.716	0.689	1.07	1.01	0.786	0.912	1.09
